Source: patent publication US20200102402A1 (ZYMEDI, published 2020)
Each block holds one binder with its values, some of them ahead of it.

Tests used:
[1] = biological target: T1, myc-KRS T52D (active mutant) (human, UniProt Q15046 2-597); assay: Immunofluorescence on A549 cells transfected with Myc tagged KRS-T52D, fixed with paraformaldehyde
T1 construct: Active mutant whose N-terminal region is exposed on the cell membrane; also called KRS-T52D mutant; T52D-KRS
Procedure: After incubation for 24 h, the cells were incubated using serum-free media (RPMI 1640 media) at 37° C. for 1 h. Thereafter, the cells were treated with 10 μg/ml laminin (L2020; Sigma) and then incubated at 37° C. for 1 h.
The prepared samples were washed with PBS (4° C.), fixed by the treatment with 4% paraformaldehyde for 10 min, and then washed. The samples were blocked with CAS block for 10 min, and treated with the scFv and Myc antibodies for 2 h. Thereafter, the unbound antibodies were washed out, and incubated with secondary antibodies for 1 h in a dark room. DAPI staining was performed for 10 min before mounting.

[2] = biological target: T2, KRS fragment composed of amino acid residues 1-200 in the N-terminus (human, UniProt Q15046 1-200); assay: Western blot on lysate of A549 cells transformed with the KRS fragment 1-200 (2), probed with the scFv
T2 construct: also called fragment 2; denoted by 2

[3] = biological target: T3, KRS fragment with deletion of amino acids at positions 1-71 in the N-terminus (human, UniProt Q15046 72-597); assay: western blotting of lysate of transformed A549 cells
T3 construct: also called fragment 1; denoted by 1
Procedure: As described above, the scFv antibodies extracted from the periplasm were used to investigate using western blotting whether the scFv antibodies bound to the full-length KRS or respective KRS N-terminal fragments. Then, 30 μg of HCT116 cell lysate was electrophoresed through SDS PAGE, transferred onto PVDF membrane, and then blocked with 3% skim milk. Thereafter, the extracted scFv antibodies were added at 1.0 μg/μl, followed by incubation for 1 h. The unbound scFv antibodies were washed out, and for detection, the scFv binding with antigens were incubated with anti-HA secondary antibodies linked with horseradish peroxidase (HRP), and film sensitization was carried out using ECL reagent as a substrate in a dark room. The sensitized bands were compared with standard molecule markers to identify bands corresponding to sizes of the full-length KRS and the respective fragments.

[4] = biological target: T4, human lysyl-tRNA synthetase (KRS), full-length (human, UniProt Q15046 1-597); assay: Western blot on lysate of A549 cells transformed with full-length KRS (F), probed with the scFv
T4 construct: also called native KRS; full-length KRS

KRS 1-207 aa = biological target: T5, KRS 1-207 aa (human, UniProt Q15046 1-207); assay: SPR Biacore 2000, KRS 1-207 immobilised on CM5, antibody 6.25-100 nM as analyte
T5 construct: also called KRS N-terminal region (SPR antigen)
Procedure: After KRS was immobilized on a sensor chip (CM5, GE healthcare, US), antibody proteins (6.25-100 nM), which were serially diluted with HES buffer solution (10 mM HEPES, pH 7.4, 150 mM NaCl, 3 mM EDTA, 0.005% surfactant P20), were allowed to flow at a rate of 30 μl/min for 3 min, and 1 M NaCl/20 mM NaOH was allowed to flow at a rate of 30 μl/min for 3 min, thereby inducing the dissociation of proteins bound to the antigen. Mock IgG was used as control. Specific experiment conditions are as follows:
The affinity was obtained from the kinetic rate constants (ka and kd) and equilibrium dissociation constants (KD) by using BIA evaluation ver. 3.2 software.

T5 sequence (Q15046 1-207): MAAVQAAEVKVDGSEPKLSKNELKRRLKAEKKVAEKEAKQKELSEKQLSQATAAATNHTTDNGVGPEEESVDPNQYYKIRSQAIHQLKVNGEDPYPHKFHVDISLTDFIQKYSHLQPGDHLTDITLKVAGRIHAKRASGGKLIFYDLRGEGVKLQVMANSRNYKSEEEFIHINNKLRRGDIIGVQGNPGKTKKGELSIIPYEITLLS
T2 sequence (Q15046 1-200): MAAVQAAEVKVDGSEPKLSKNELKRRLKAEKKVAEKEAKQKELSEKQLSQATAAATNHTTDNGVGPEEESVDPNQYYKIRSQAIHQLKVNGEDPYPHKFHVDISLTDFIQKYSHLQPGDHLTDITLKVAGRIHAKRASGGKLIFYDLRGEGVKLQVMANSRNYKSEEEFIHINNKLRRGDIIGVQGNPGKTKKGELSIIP
T4 sequence (Q15046 whole entry): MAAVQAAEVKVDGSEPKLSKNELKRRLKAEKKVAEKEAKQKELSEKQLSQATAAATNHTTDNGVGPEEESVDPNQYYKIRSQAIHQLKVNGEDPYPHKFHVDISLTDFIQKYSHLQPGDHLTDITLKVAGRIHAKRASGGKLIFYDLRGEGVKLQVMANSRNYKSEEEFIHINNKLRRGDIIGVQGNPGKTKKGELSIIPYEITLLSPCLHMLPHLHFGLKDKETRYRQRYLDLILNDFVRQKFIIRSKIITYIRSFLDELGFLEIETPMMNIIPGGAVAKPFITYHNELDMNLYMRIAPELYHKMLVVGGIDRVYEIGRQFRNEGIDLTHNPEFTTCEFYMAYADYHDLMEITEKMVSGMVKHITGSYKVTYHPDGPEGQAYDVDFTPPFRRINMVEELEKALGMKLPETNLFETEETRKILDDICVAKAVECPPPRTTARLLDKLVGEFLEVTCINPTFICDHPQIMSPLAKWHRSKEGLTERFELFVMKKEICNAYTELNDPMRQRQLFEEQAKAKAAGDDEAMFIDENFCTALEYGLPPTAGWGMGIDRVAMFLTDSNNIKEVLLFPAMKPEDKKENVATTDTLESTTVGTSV
T1 sequence (Q15046 2-597 T52D): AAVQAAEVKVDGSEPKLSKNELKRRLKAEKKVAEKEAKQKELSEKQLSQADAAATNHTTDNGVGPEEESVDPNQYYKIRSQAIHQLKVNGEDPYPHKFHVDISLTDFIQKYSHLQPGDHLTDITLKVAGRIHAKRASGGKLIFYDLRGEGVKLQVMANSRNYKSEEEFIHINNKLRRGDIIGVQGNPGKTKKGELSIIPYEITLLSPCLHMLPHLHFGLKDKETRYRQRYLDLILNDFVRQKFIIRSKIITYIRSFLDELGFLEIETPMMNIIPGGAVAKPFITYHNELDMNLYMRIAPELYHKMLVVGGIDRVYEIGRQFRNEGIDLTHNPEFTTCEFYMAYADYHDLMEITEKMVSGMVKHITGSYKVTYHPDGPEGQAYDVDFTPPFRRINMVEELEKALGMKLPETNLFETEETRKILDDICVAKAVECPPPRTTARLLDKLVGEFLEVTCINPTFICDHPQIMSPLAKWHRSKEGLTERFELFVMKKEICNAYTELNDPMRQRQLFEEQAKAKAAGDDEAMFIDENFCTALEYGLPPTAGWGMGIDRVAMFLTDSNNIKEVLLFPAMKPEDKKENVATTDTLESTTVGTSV
T3 sequence (Q15046 72-597, stated change not applied): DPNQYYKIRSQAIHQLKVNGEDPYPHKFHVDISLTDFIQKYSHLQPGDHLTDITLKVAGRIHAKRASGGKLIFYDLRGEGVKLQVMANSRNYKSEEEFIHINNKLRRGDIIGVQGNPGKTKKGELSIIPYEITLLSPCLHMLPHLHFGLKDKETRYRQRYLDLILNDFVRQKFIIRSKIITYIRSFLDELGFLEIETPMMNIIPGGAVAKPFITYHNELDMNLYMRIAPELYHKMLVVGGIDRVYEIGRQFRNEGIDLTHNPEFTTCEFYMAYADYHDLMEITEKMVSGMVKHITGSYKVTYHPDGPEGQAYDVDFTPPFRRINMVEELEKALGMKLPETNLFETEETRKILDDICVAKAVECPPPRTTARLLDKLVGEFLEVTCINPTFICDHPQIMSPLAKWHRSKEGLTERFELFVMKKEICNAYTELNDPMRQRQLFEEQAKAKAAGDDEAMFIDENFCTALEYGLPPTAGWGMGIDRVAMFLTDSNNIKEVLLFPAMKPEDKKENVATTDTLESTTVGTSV

- binding result [1]: binds
- binding result [2]: binds
- binding result [3]: no binding
- binding result [4]: binds
B1: N5 scFv (scFv)
scFv: EVQLLESGGGLVQPGGSLRLSCAASGFTFSDYAMSWVRQAPGKGLEWVSWIYSGSGNKYYADSVKGRFTISRDNSKNTLYLQMNSLRAEDTAVYYCARMGLDFDYWGQGTLVTVSSGGGGSGGGGSGGGGSQSVLTQPPSASGTPGQRVTISCTGSSSNIGNNYVSWYQQLPGTAPKLLIYDDNQRPSGVPDRFSGSKSGTSASLAISGLRSEDEADYYCGTWDDSLSAYVFGGGTKLTVL
notes: HA-tagged scFv purified on Ni-NTA; also called scFv N5 clone

- Kd (KRS 1-207 aa): 1.05 nM
- koff (KRS 1-207 aa): 0.00328 s⁻¹
- kon (KRS 1-207 aa): 3.13e+06 M⁻¹ s⁻¹
B2: N5 IgG (antibody, V domains shown)
VH: EVQLLESGGGLVQPGGSLRLSCAASGFTFSDYAMSWVRQAPGKGLEWVSWIYSGSGNKYYADSVKGRFTISRDNSKNTLYLQMNSLRAEDTAVYYCARMGLDFDYWGQGTLVTVSS
VL: QSVLTQPPSASGTPGQRVTISCTGSSSNIGNNYVSWYQQLPGTAPKLLIYDDNQRPSGVPDRFSGSKSGTSASLAISGLRSEDEADYYCGTWDDSLSAYVFGGGTKLTVL
notes: IgG made from the scFv variable regions
